Test results reported in patent US20170146518A1 (CENTRE NATIONAL DE LA RECHERCHE SCIENTIFIQUE CNRS, published 2017).
Non-standard residues stand in square brackets, D forms with d. No end group written: not given here. pGlu = O=C1CC[C@@H](C(=O)O)N1; Nle = CCCC[C@H](N)C(=O)O

How the values were obtained:
[1] = target: T1, HA-APJ (transfected in HEK-293T cells) (human, UniProt P35414 1-380); test: radioligand binding, membranes of HEK-293T transfected with APJ or with APJ and GP130
T1 construct: HA-APJ construct from Dr. L. Zheng (Chun et al., 2008); also called APJ-HA; APJ-expression plasmid; not shown: HA tag
T1 sequence: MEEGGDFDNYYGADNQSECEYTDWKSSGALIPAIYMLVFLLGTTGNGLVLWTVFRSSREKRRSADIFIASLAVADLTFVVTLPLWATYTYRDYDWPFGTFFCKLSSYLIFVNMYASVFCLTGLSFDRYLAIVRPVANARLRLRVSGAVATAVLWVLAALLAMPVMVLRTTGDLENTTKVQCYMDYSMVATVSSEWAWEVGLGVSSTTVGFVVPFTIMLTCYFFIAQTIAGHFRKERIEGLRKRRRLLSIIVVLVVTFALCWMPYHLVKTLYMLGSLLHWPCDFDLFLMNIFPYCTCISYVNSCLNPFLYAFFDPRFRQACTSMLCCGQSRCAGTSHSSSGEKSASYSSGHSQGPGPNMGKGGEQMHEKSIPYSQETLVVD
Description: Homogenates were cleared by 5 min centrifugation at 3000 rpm. Then cells were resuspended in binding buffer ([…] Hepes, 5 mM MgCl2 and 1% BSA) and ultracentrifuged to obtain cell membranes. Membranes were then incubated with [125I][<Glu65,Nle75,Tyr77]apelin-13 (Perkin Elmer) in 100 μl of the binding buffer at room temperature for 90 min. In order to determine the amounts of nonspecific binding, unlabeled [<Glu65,Nle75,Tyr77] apelin-13 (Sigma) was simultaneously added After incubation, bound and free radioactivities were separated through rapid filtration using the glass-fiber filter units (GF/C, Packard Instrument Co.) of a cell harvester (Packard). Filter units were completely dried, and Microcinti O (Packard) was added to each well. The radioactivity of each well was counted with a TopCount liquid scintillation counter (Packard). The dissociation constant (Kd) and the number of binding sites (B max) were determined by the method of Scatchard.

[2] = target: T2, APJ (endogenous, in patient-derived GSCs) (human, UniProt P35414 1-380); test: radioactive binding assay in GSCs using GP130-siRNA and anti-GP130 antibodies
T2 construct: Endogenous receptor of patient-derived glioblastoma stem-like cells, tested on intact cells, in membrane preparations or in lysates; also called Apelin receptor; APLNR
T2 sequence: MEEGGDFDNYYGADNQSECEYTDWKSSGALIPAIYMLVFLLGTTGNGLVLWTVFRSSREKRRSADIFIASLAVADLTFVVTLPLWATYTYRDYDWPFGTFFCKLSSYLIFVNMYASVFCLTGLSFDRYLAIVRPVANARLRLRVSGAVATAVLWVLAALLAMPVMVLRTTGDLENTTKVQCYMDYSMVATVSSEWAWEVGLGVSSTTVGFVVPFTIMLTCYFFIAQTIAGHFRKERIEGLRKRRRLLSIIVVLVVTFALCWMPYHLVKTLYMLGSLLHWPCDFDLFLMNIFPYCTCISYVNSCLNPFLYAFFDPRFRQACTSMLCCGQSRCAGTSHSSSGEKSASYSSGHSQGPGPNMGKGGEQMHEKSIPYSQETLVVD
Description: Prior to binding experiments, 2×10⁶ GSCs were washed three times with DMEM/F12, and resuspended in binding buffer (DMEM/F12, 40 mM HEPES, 1% BSA). In order to determine the amount of nonspecific binding, 1 μM unlabeled [<Glu⁶⁵, Nle⁷⁵, Tyr⁷⁷]apelin-13 was added. Cells were pre-incubated with GP130 blocking antibody (2 μg/ml) when indicated. Cells were then incubated with 400 pM [¹²⁵I][<Glu⁶⁵,Nlc⁷⁵,Tyr⁷⁷]apelin-13 in agitation for 6 h at 4° C., and radioactivity was measured with a gamma counter (Beckman).

Binder: [pGlu]RPRLSHKGP[Nle]PY (also: 125I label, place not given here) [[125I][<Glu65,Nle75,Tyr77]apelin-13]
- binding result [1]: binds
- binding result [2]: binds
